Paper PMC7511310, “Ancestral sequence reconstruction produces thermally stable enzymes with mesophilic enzyme-like catalytic properties” (Scientific Reports, 2020)

Legend:
Test in all cases: A340 NADH formation, steady state, Michaelis-Menten fit
[1] = substrate: NC(=O)c1ccc[n+]([C@@H]2O[C@H](COP(=O)(O)OP(=O)(O)OC[C@H]3O[C@@H](n4cnc5c(N)ncnc54)[C@H](O)[C@@H]3O)[C@@H](O)[C@H]2O)c1; format: biochemical, Bacillus subtilis; settings: 25 °C, 50 mM HEPES pH 8.0, 100 mM KCl, 5 mM MgCl2, 0.2 mM D-3-IPM fixed, 25.0 °C, varied: cofactor
Source text: (§1) A340 NADH formation, steady state, Michaelis-Menten fit on B. subtilis IPMDH

[2] = substrate: CC(C)[C@H](C(=O)O)[C@@H](O)C(=O)O; format: biochemical, Bacillus subtilis; settings: 40 °C, 50 mM HEPES pH 8.0, 100 mM KCl, 5 mM MgCl2, 5 mM NAD+ fixed, 40.0 °C
Source text: as §1

[3] = substrate: NC(=O)c1ccc[n+]([C@@H]2O[C@H](COP(=O)(O)OP(=O)(O)OC[C@H]3O[C@@H](n4cnc5c(N)ncnc54)[C@H](O)[C@@H]3O)[C@@H](O)[C@H]2O)c1; format: biochemical, Thermus thermophilus; settings: 25 °C, 50 mM HEPES pH 8.0, 100 mM KCl, 5 mM MgCl2, 0.2 mM D-3-IPM fixed, 25.0 °C, varied: cofactor
Source text: (§2) A340 NADH formation, steady state, Michaelis-Menten fit on T. thermophilus IPMDH

[4] = substrate: CC(C)[C@H](C(=O)O)[C@@H](O)C(=O)O; format: biochemical, Thermus thermophilus; settings: 40 °C, 50 mM HEPES pH 8.0, 100 mM KCl, 5 mM MgCl2, 5 mM NAD+ fixed, 40.0 °C
Source text: as §2

[5] = substrate: NC(=O)c1ccc[n+]([C@@H]2O[C@H](COP(=O)(O)OP(=O)(O)OC[C@H]3O[C@@H](n4cnc5c(N)ncnc54)[C@H](O)[C@@H]3O)[C@@H](O)[C@H]2O)c1; format: biochemical, Saccharomyces cerevisiae; settings: 25 °C, 50 mM HEPES pH 8.0, 100 mM KCl, 5 mM MgCl2, 0.2 mM D-3-IPM fixed, 25.0 °C, varied: cofactor
Source text: (§3) A340 NADH formation, steady state, Michaelis-Menten fit on S. cerevisiae IPMDH

[6] = substrate: CC(C)[C@H](C(=O)O)[C@@H](O)C(=O)O; format: biochemical, Saccharomyces cerevisiae; settings: 40 °C, 50 mM HEPES pH 8.0, 100 mM KCl, 5 mM MgCl2, 5 mM NAD+ fixed, 40.0 °C
Source text: as §3

B1: B. subtilis IPMDH (Bacillus subtilis subsp. subtilis str. 168) (protein)
chain: MKKRIALLPGDGIGPEVLESATDVLKSVAERFNHEFEFEYGLIGGAAIDEHHNPLPEETVAACKNADAILLGAVGGPKWDQNPSELRPEKGLLSIRKQLDLFANLRPVKVFESLSDASPLKKEYIDNVDFVIVRELTGGLYFGQPSKRYVNTEGEQEAVDTLFYKRTEIERVIREGFKMAAARKGKVTSVDKANVLESSRLWREVAEDVAQEFPDVKLEHMLVDNAAMQLIYAPNQFDVVVTENMFGDILSDEASMLTGSLGMLPSASLSSSGLHLFEPVHGSAPDIAGKGMANPFAAILSAAMLLRTSFGLEEEAKAVEDAVNKVLASGKRTRDLARSEEFSSTQAITEEVKAAIMSENTISNV
notes: recombinant from E. coli Rosetta2 (DE3), pET21c(+) NdeI-BamHI, purified by HiTrap-Q, HiTrap-Butyl and ResourceQ; no tag mentioned
- Km [1]: 110 ± 10 µM
- kcat [1]: 2.8 ± 0.1 s⁻¹
- Km [2]: 0.78 ± 0.11 µM
- kcat [2]: 9.4 ± 0.2 s⁻¹

B2: T. thermophilus IPMDH (Thermus thermophilus HB8) (protein)
chain: MKVAVLPGDGIGPEVTEAALKVLRALDEAEGLGLAYEVFPFGGAAIDAFGEPFPEPTRKGVEEAEAVLLGSVGGPKWDGLPRKIRPETGLLSLRKSQDLFANLRPAKVFPGLERLSPLKEEIARGVDVLIVRELTGGIYFGEPRGMSEAEAWNTERYSKPEVERVARVAFEAARKRRKHVVSVDKANVLEVGEFWRKTVEEVGRGYPDVALEHQYVDAMAMHLVRSPARFDVVVTGNIFGDILSDLASVLPGSLGLLPSASLGRGTPVFEPVHGSAPDIAGKGIANPTAAILSAAMMLEHAFGLVELARKVEDAVAKALLETPPPDLGGSAGTEAFTATVLRHLA
notes: extant thermophilic wild type; homodimer
- Km [3]: 2.2 ± 0.3 µM
- kcat [3]: 0.37 ± 0.01 s⁻¹
- Km [4]: 2.3 ± 0.8 µM
- kcat [4]: 2.4 ± 0.1 s⁻¹

B3: S. cerevisiae IPMDH (Saccharomyces cerevisiae S288C) (protein)
chain: MSAPKKIVVLPGDHVGQEITAEAIKVLKAISDVRSNVKFDFENHLIGGAAIDATGVPLPDEALEASKKADAVLLGAVGGPKWGTGSVRPEQGLLKIRKELQLYANLRPCNFASDSLLDLSPIKPQFAKGTDFVVVRELVGGIYFGKRKEDDGDGVAWDSEQYTVPEVQRITRMAAFMALQHEPPLPIWSLDKANVLASSRLWRKTVEETIKNEFPTLKVQHQLIDSAAMILVKNPTHLNGIIITSNMFGDIISDEASVIPGSLGLLPSASLASLPDKNTAFGLYEPCHGSAPDLPKNKVNPIATILSAAMMLKLSLNLPEEGKAIEDAVKKVLDAGIRTGDLGGSNSTTEVGDAVAEEVKKILA
notes: as for B1
- Km [5]: 130 ± 10 µM
- kcat [5]: 5.1 ± 0.1 s⁻¹
- Km [6]: 4.5 ± 0.7 µM
- kcat [6]: 20 ± 1 s⁻¹
